Laboratory results as given in patent US6395526B1, “DNA polymerase” (Takara Shuzo Co., Ltd., priority 1995, dated 2002).

Legend:
λ-DNA = settings: reported, enzyme used alone; cited from earlier work
M13-HT Primer = assay: Primer extension reaction (autoradiogram, FIG. 6); type: biochemical; settings: activated DNA added in great excess
Procedure: The primer extension activity was further investigated extensively. The M13-HT Primer, previously labeled with [γ-^32P]-ATP (manufactured by Amersham) and T4 polynucleotide kinase (manufactured by Takara Shuzo Co., Ltd.) at the 5′-end, was used as a substrate. Ten microliters of a reaction mixture [20 mM Tris-HCl (pH 7.7), 15 mM MgCl2, 2 mM 2-mercaptoethanol, 270 μM each of dATP, dGTP, dCTP and dTTP] containing the above substrate in a final concentration of […] and various DNA polymerases in amounts providing 0.05 units of activity as assayed with the activated DNA as a substrate was reacted at 75° C. for 1, 2, 3, or 4 minutes. After termination of the reaction, 2 μl of a reaction stop solution (95% […], 20 mM EDTA, 0.05% bromophenol blue, 0.05% xylenecyanol) was added, subjected to thermal denaturation treatment at 95° C. for 3 minutes. Two microliters of the reaction mixture was then subjected to electrophoresis using polyacrylamide gel containing 8 M urea and subsequently subjected to a preparation of autoradiogram. Also, in order to examine the extension activity in the presence of the activated DNA as a competitor substrate, the activated DNA was added to the above reaction mixture to a final concentration of […], and subjected to a preparation of an autoradiogram by the same procedures as described above.
In the figure, Pol, Pfu, and Taq show the results for the DNA polymerase of the present invention, the Pfu DNA polymerase and the Taq DNA polymerase, respectively. In addition, 1, 2, 3, and 4 each indicates reaction time (min). In the figure, the representation “−” and “+” show the results obtained in the absence and in the presence, respectively, of the activated DNA. The lanes G, A, T, and C at the left end of the figure also show the results of electrophoresis of the reaction products obtained by a chain termination reaction by the dideoxy method using the same substrate as above, which were used to estimate the length of each extension product.

[1] = test system: substrate DNA (template-primer); assay: DNA polymerase activity on different forms of substrate DNA (template-primer); type: biochemical
Procedure: The DNA polymerase activity was assayed using calf thymus DNA (manufactured by Worthington) activated by DNase I treatment (activated DNA) as a substrate. DNA activation and assay of DNA polymerase activity were carried out by the method described in DNA Polymerase from Escherichia coli, 263-276 (authored by C. C. Richardson), published by Harper & Row, edited by D. R. Davis.
An assay of enzyme activity was carried out by the following method. Specifically, 50 μl of a reaction solution [20 mM Tris-HCl (pH 7.7), 15 mM MgCl2, 2 mM 2-mercaptoethanol, 0.2 mg/ml activated DNA, 40 μM each of dATP, dCTP, dGTP and dTTP, 60 nM [^3H]-dTTP (manufactured by Amersham)], containing a sample for assaying its activity, was prepared and reacted at 75° C. for 15 minutes. A 40 μl portion of this reaction mixture was then spotted onto a DE paper (manufactured by Whatman) and washed with 5% Na2HPO4 five times. The remaining radioactivity on the DE paper was assayed using a liquid scintillation counter. The amount of enzyme which incorporated 10 nmol of [^3H]-dTMP per 30 minutes into the substrate DNA, assayed by the above-described enzyme activity assay method, was defined as one unit of the enzyme.
Next, in order to compare the selectivity of the DNA polymerase of the present invention for different forms of substrate DNA, the following template-primer was examined. Aside from the activated DNA used for conventional assay of the activity, those prepared as substrates include a thermal-denatured DNA prepared by treating the activated DNA at 85° C. for 5 minutes; M13-HT Primer prepared by annealing a 45-base synthetic deoxyribooligonucleotide of the sequence as shown by SEQ ID NO:6 in Sequence Listing as a primer to the M13 phage single stranded DNA (M13mp18 ssDNA, manufactured by Takara Shuzo Co., Ltd.); M13-RNA Primer prepared by annealing a 17-base synthetic ribooligonucleotide of the sequence as shown by SEQ ID NO:7 in Sequence Listing as a primer to the same M13 phage single stranded DNA; Poly dA-Oligo dT prepared by mixing polydeoxyadenosine (Poly dA, manufactured by Pharmacia) and oligodeoxythymidine (Oligo dT, manufactured by Pharmacia) in a 20:1 molar ratio; and Poly A-Oligo dT prepared by mixing polyadenosine (Poly A, manufactured by Pharmacia) and oligodeoxythymidine in a 20:1 molar ratio.
The DNA polymerase activity was assayed using these substrates in place of the activated DNA. The relative activity of each substrate when the activity obtained in the case of using an activated DNA as a substrate is defined as 100 is shown in Table 1. For comparison, the Pfu DNA polymerase and the Taq DNA polymerase derived from Thermus aquaticus (TaKaRa Taq, manufactured by Takara Shuzo Co., Ltd.) were also examined in the same manner.

B1: Pfu DNA Polymerase: α-type DNA polymerase derived from Pyrococcus furiousus, manufactured by Stratagene (protein, UniProt P61875 1-775, looked up)
DNA polymerase: MILDVDYITEEGKPVIRLFKKENGKFKIEHDRTFRPYIYALLRDDSKIEEVKKITGERHGKIVRIVDVEKVEKKFLGKPITVWKLYLEHPQDVPTIREKVREHPAVVDIFEYDIPFAKRYLIDKGLIPMEGEEELKILAFDIETLYHEGEEFGKGPIIMISYADENEAKVITWKNIDLPYVEVVSSEREMIKRFLRIIREKDPDIIVTYNGDSFDFPYLAKRAEKLGIKLTIGRDGSEPKMQRIGDMTAVEVKGRIHFDLYHVITRTINLPTYTLEAVYEAIFGKPKEKVYADEIAKAWESGENLERVAKYSMEDAKATYELGKEFLPMEIQLSRLVGQPLWDVSRSSTGNLVEWFLLRKAYERNEVAPNKPSEEEYQRRLRESYTGGFVKEPEKGLWENIVYLDFRALYPSIIITHNVSPDTLNLEGCKNYDIAPQVGHKFCKDIPGFIPSLLGHLLEERQKIKTKMKETQDPIEKILLDYRQKAIKLLANSFYGYYGYAKARWYCKECAESVTAWGRKYIELVWKELEEKFGFKVLYIDTDGLYATIPGGESEEIKKKALEFVKYINSKLPGLLELEYEGFYKRGFFVTKKRYAVIDEEGKVITRGLEIVRRDWSEIAKETQARVLETILKHGDVEEAVRIVKEVIQKLANYEIPPEKLAIYEQITRPLHEYKAIGPHVAVAKKLAAKGVKIKPGMVIGYIVLRGDGPISNRAILAEEYDPKKHKYDAEYYIENQVLPAVLRILEGFGYRKEDLRYQKTRQVGLTSWLNIKKS
- strand length of DNA amplifiable by PCR (λ-DNA): at most 3 kbp
- inhibition of primer extension by activated DNA as competitor substrate (M13-HT Primer): strongly inhibited
- Relative Activity ([1]; substrate M13-HT primer, activated DNA = 100): 23
- Relative Activity ([1]; substrate M13-RNA primer, activated DNA = 100): 0.49
- Relative Activity ([1]; substrate activated DNA (defined as 100)): 100
- Relative Activity ([1]; substrate poly dA-Oligo dT, activated DNA = 100): 390
- Relative Activity ([1]; substrate thermal-denatured DNA, activated DNA = 100): 87
